Measurements from PMC7504102.

Target: unfused negative control SGFP2
Assay: pull-down; SGFP2-fused proteins held on protein G magnetic beads via anti-GFP pAb; incubated with Nluc-ALG-2 (300 ng/mL) in buffer HKM, 0.2% Nonidet P-40, 0.1% gelatin, 100 μM CaCl2, 2 h, 4 °C; bound luciferase activity relative to Sec31A-p (100%)

nanoluciferase (NanoLuc, Nluc)-fused ALG-2, sequence (O75340 whole entry, the tested form may be a part): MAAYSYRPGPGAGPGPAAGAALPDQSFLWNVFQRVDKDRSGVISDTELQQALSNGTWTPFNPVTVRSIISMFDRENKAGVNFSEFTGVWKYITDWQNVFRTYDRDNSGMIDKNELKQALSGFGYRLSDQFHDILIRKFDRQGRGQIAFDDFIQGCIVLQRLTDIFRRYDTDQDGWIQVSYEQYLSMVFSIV

binding activity relative to Sec31A-p (100%): 0.18%
Substance: nanoluciferase (NanoLuc, Nluc)-fused ALG-2 (from UniProt O75340 1-191) (natural protein)
